In patent US20130302399A1 (published 2013):
Where a chain is given by its changes, count along the chain named. Read-outs that look alike come from different tables or passages of the source.

T1: cynomolgus monkey PCSK9 (cynomolgus monkey, UniProt A0A7N9D9N8 150-747)
T1 chain: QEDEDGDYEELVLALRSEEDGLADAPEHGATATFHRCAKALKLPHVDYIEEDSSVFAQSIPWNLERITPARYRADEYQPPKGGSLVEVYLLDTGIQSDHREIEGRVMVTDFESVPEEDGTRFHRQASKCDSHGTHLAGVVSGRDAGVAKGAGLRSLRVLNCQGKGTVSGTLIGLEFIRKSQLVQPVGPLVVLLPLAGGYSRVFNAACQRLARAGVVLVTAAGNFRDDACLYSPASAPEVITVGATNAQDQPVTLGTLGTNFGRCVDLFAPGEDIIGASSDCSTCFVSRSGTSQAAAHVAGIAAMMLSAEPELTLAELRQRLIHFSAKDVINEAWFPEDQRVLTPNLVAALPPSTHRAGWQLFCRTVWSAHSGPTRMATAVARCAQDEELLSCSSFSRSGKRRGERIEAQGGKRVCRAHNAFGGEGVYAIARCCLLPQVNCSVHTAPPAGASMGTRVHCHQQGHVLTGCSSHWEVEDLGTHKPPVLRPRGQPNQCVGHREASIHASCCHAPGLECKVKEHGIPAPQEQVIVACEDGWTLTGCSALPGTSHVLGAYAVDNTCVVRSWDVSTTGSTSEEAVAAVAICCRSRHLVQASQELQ

B1: Ab8 (antibody, V domains shown)
VH: QEQLVESGGGLVQPEGSLTLTCTASGFSFTSDYYMCWVRQAPGKGLEWIGCISTGDGSTYYASWAKGRFTISKPSSTTVTLQMTRLTAADTATYFCARDRYYSYAYGAYVYASDLWGPGTLVTVSS
VL: DIVMTQTPASVSEPVGGTVTINCQASESIRNYLSWYQQKPGQRPKLLIYGASTLASGVPSRFKGSGSGTDFTLTISDLECADAATYYCQSNYGISSRSYVNGFGGGTEVVVKR
B2: Ab5 (antibody, V domains shown)
VH: QSVEESGGRLVTPGTPLTLTCTVSGFSLSSYAMSWVRQAPGKGLEWIGIISNSGTTYYASWAKGRFTISKTSTTVDLKITSPTTEDTATYFCARGIYWYWRVFNLWGPGTLVTVSS
VL: AVLTQTPSPVSAAVGGTVTINCQASQSVYNNLLSWYQQKPGQPPKLLIYDASNLASGVPDRFSGSGSGTQFTLTISGVQCDDAATYYCLGGYDDDADNAFGGGTEVVVKR
B3: Ab24 (antibody, V domains shown)
VH: QSLEESGGDLVKPGASLTLTCKASGFSFSSGYYMCWVRQAPGKGLEWIACIYAGSGGSTFFANWAKGRFTISKTSSTTVTLQMTSLTAADTATYFCARDGGYAGYGYAFFNLWGPGTLVTVSS
VL: DVVMTQTPASVSEPVGGTVTIKCQASERIYSGLAWYQQKPGQPPKLLIYGASTLASGVPSRFKGSGSGTDFTLTISDLECDDAAIYYCQATYYGSSYPNVFGGGTEVVVKR
B4: Ab9 (antibody, V domains shown)
VH: QSVEESGGRLVTPGTPLTLTCTVSGIDLSSYAMGWVRQAPGKGLEYIGIIVSYGPTYYASWAKGRFTISKTSTTVDLKITSPTAEDTATYFCARDLDANSSGYYGCFNIWGQGTLVTVSS
VL: AVVLTQTPASVSAAVGGTVTIKCQASQSISTALAWYQQKPGQPPKLLIYAASPLASGVSSRFKSSGSGTEFTLTISDLECADAATYYCQSYYGSSNIAFGGGTELEILR
B5: Ab15 (antibody, V domains shown)
VH: QEQLEESGGDLVKPEGSLTLTCTASGFSFSSSYWICWVRQAPGKGLEWIACIDAGNSGSTYYASWAKGRFTISKASSTTVTLQMTSLTAADTATYFCASDLNDGWLGQFNLWGPGTLVTVSS
VL: NIVMTQTPSPVSGAVGGTVTIKCQASQSISDYLAWYQQKPGQPPKLLIYRASTLASGVPSRFRGSGSGTEYTLTITDLECADAATYYCQSYYSVTTNTYGNTFGGGTEVVVKR
B6: Ab7 (antibody, V domains shown)
VH: EVQLVESGGGLVQPGGSLRLSCAASGFTVSSNYWICWVRQAPGKGLEWIGCIRDGGGTYYASSAKGRFTISRDNSKNTLYLQMNSLRAEDTAVYYCASDINDGWLGQFNLWGQGTLVTVSS
VL: DIVMTQSPSSLSASVGDRVTIKCQASQSISAYLAWYQQKPGKVPKLLIYRAYTLASGVPSRFSGSGSGTDFTLTISSLQPEDVATYYCQSYYSVTTNTYGNTFGGGTKVEIKR
B7: Ab6 (antibody, V domains shown)
VH: QEQLEESGGDLVKPEGSLTLTCTASGFSFSSNYWICWVRQAPGKGLEWIGCIRDGGGTYYASWAKGRLTISMTSSTTVTLQLNSLTAADTATYFCASDINDGWLGQFNLWGPGTLVTVSS
VL: DIVMTQTPASVEVAVGGTVTIKCQASQSISAYLAWYQQKPGQPPKLLIYRAYTLASGVPSRFKGSGSGTQFTLTISDLECADAATYYCQSYYSVTTNTYGNTFGGGTEVVVKR
B8: Ab22 (antibody, V domains shown)
VH: EVQLVESGGGLVQPGGSLRLSCAASGFSLSSYAMNWVRQAPGKGLEWIGAIRSSGATFFASSVNGRFTISRDNSKNTVYLQMNSLRAEDTAVYYCARDTNDGWYINRLDLWGQGTLVTVSS
VL: AVLTQSPSTLSASVGDRVTITCQSSKSVYSNYLSWFQQKPGKAPKFLIYKASTLASGVPSRFSGSGSGTEFTLTISSLQPDDFATYYCAGGDTNIADNAFGGGTKVEIKR
B9: Ab10 (antibody, V domains shown)
VH: B7 VH with N32S, G50A, D54A, T58N, S62N, L68F, M72R, L82M, N83T
VL: B7 VL with D1N, V13A, A31N, A51T, Y52S, N97V, T98A
B10: Ab13 (antibody, V domains shown)
VH: QSVEESGGRLVTPGTPLTLTCTVSGIDLSTYGVGWVRQAPGKGLEYIGIISSSGSTYYASWAKGRFTISKTSSTTVDLKMTSLTTEDTATYFCARDWSSTTGYYGYFNMWGPGTLVTVSS
VL: AFELTQTPSPVSAAVGGTVTIKCQASQSISTALAWYQQKPGQPPKLLIYGASNLESGVPSRFSGSGSGTQFTLTISDLECADAAIYYCQSSYGSSTLAFGGGTEVVVKR
B11: Ab23 (antibody, V domains shown)
VH: B3 VH
VL: B3 VL with A90C

Experiments:
[1] = target: T2, human Proprotein Convertase Subtilisin-like/Kexin type 9 (UniProt Q8NBP7 31-692); test: ELISA
Target sequence in this assay (Q8NBP7 31-692): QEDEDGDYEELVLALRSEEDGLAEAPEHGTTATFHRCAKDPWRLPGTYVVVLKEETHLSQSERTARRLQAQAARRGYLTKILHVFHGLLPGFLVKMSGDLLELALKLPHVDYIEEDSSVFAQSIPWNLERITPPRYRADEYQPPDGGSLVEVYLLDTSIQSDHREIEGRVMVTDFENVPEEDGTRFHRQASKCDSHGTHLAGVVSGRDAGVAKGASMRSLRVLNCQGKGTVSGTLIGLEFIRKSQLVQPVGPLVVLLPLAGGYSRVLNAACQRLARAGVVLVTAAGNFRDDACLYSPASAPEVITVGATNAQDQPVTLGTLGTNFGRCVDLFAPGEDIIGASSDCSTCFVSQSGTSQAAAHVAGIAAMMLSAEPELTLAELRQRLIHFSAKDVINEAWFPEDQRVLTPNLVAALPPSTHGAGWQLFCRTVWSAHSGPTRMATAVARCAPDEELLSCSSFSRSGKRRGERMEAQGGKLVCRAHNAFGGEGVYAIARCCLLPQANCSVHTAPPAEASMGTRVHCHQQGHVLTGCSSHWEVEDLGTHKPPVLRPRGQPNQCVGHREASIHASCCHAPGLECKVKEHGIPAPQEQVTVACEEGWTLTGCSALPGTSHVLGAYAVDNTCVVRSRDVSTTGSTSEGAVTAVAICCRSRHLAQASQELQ

cynomolgus monkey PCSK9 [2] = target: T1, cynomolgus monkey PCSK9; test: ELISA
[3] = target: T2, human Proprotein Convertase …; test: ELISA; remark: listed apart in the source
cynomolgus monkey PCSK9 [4] = target: T1, cynomolgus monkey PCSK9; test: ELISA
[5] = target: T2, human Proprotein Convertase …; test: ELISA; remark: listed apart in the source
[6] = target: T2, human Proprotein Convertase …; test: ELISA; remark: listed apart in the source
[7] = target: T2, human Proprotein Convertase …; test: PCSK9-LDLR blocking ELISA

Row | Binder | EC50 [1] | EC50 (cynomolgus monkey PCSK9 [2]) | other results
1 | B1 | 0.0874 nM | 0.106 nM | –
2 | B2 | 0.116 nM | 0.169 nM | –
3 | B3 | – | – | EC50 [3]: 0.178 nM
4 | B4 | 0.098 nM | – | –
5 | B5 | – | – | EC50 (cynomolgus monkey PCSK9 [4]): 0.161 nM
6 | B6 | – | 0.103 nM | EC50 [5]: 0.104 nM
7 | B7 | 0.117 nM | 0.112 nM | –
8 | B8 | – | – | EC50 [6]: 0.0492 nM
9 | B9 | – | – | EC50 [5]: 0.126 nM
10 | B10 | – | – | EC50 [5]: 0.124 nM
11 | B11 | – | – | IC50 [7]: 0.81 nM
